Experimental data as given in publication PMC12618784, “The ARVC-5-associated protein TMEM43 controls mitochondrial energy metabolism by stabilising ER-mitochondrial contact sites” (Cellular and Molecular Life Sciences: CMLS, 2025).

Biological target: T1, Dmel\Tmem43wt::TurboID (Drosophila, UniProt Q9VSB9 1-376)
T1 construct: Dmel\Tmem43 (CG8111), the Drosophila homologue of human TMEM43, wild type; Generated in this study; cloning details are available upon request; also called UAS-CG8111^WT-TurboID; source: transgenic Drosophila third-instar larvae, expressed in muscle with mef2-Gal4, in vivo and in lysate
T1 sequence (looked up): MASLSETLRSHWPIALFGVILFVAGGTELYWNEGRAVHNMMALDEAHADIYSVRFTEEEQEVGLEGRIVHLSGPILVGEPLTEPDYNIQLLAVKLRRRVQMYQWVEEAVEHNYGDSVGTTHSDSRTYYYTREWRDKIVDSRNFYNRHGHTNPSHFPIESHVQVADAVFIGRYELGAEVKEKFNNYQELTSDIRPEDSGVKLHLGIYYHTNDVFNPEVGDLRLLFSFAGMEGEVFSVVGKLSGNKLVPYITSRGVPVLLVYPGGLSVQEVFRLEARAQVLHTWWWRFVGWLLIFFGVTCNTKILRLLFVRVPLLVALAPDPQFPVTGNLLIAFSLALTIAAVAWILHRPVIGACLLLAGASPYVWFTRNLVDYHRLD
Experiment: proximity labelling; TurboID fusions expressed in muscle of third-instar larvae (mef2-Gal4); biotinylated proteins purified on streptavidin microbeads and identified by mass spectrometry
Conditions: partners not purified

fold stronger interaction than the p.S333L mutant (relative amounts of biotinylated protein): ~8 fold
B1: Porin (natural protein, UniProt Q94920 1-282, looked up)
chain: MAPPSYSDLGKQARDIFSKGYNFGLWKLDLKTKTSSGIEFNTAGHSNQESGKVFGSLETKYKVKDYGLTLTEKWNTDNTLFTEVAVQDQLLEGLKLSLEGNFAPQSGNKNGKFKVAYGHENVKADSDVNIDLKGPLINASAVLGYQGWLAGYQTAFDTQQSKLTTNNFALGYTTKDFVLHTAVNDGQEFSGSIFQRTSDKLDVGVQLSWASGTSNTKFAIGAKYQLDDDASVRAKVNNASQVGLGYQQKLRDGVTLTLSTLVDGKNFNAGGHKIGVGLELEA
notes: Porin, the fly homologue of the vertebrate voltage-dependent anion channels (VDACs), outer mitochondrial membrane; also called Porin/VDAC; fly homologue of the vertebrate voltage-dependent anion channels; source: endogenous, Drosophila third-instar larval extract
